B1: TcdB2 (TcB) of the TcdB2-TccC3 cocoon (natural protein)
chain: MQNSQDFSITELSLPKGGGAITGMGEALTPTGPDGMAALSLPLPISAGRGYAPAFTLNYNSGAGNSPFGLGWDCNVMTIRRRTHFGVPHYDETDTFLGPEGEVLVVADQPRDESTLQGINLGATFTVTGYRSRLESHFSRLEYWQPKTTGKTDFWLIYSPDGQVHLLGKSPQARISNPSQTTQTAQWLLEASVSSRGEQIYYQYRAEDDTGCEADEITHHLQATAQRYLHIVYYGNRTASETLPGLDGSAPSQADWLFYLVFDYGERSNNLKTPPAFSTTGSWLCRQDRFSRYEYGFEIRTRRLCRQVLMYHHLQALDSKITEHNGPTLVSRLILNYDESAIASTLVFVRRVGHEQDGNVVTLPPLELAYQDFSPRHHAHWQPMDVLANFNAIQRWQLVDLKGEGLPGLLYQDKGAWWYRSAQRLGEIGSDAVTWEKMQPLSVIPSLQSNASLVDINGDGQLDWVITGPGLRGYHSQRPDGSWTRFTPLNALPVEYTHPRAQLADLMGAGLSDLVLIGPKSVRLYANTRDGFAKGKDVVQSGDITLPVPGADPRKLVAFSDVLGSGQAHLVEVSATKVTCWPNLGRGRFGQPITLPGFSQPATEFNPAQVYLADLDGSGPTDLIYVHTNRLDIFLNKSGNGFAEPVTLRFPEGLRFDHTCQLQMADVQGLGVASLILSVPHMSPHHWRCDLTNMKPWLLNEMNNNMGVHHTLRYRSSSQFWLDEKAAALTTGQTPVCYLPFPIHTLWQTETEDEISGNKLVTTLRYARGAWDGREREFRGFGYVEQTDSHQLAQGNAPERTPPALTKNWYATGLPVIDNALSTEYWRDDQAFAGFSPRFTTWQDNKDVPLTPEDDNSRYWFNRALKGQLLRSELYGLDDSTNKHVPYTVTEFRSQVRRLQHTDSRYPVLWSSVVESRNYHYERIASDPQCSQNITLSSDRFGQPLKQLSVQYPRRQQPAINLYPDTLPDKLLANSYDDQQRQLRLTYQQSSWHHLTNNTVRVLGLPDSTRSDIFTYGAENVPAGGLNLELLSDKNSLIADDKPREYLGQQKTAYTDGQNTTPLQTPTRQALIAFTETTVFNQSTLSAFNGSIPSDKLSTTLEQAGYQQTNYLFPRTGEDKVWVAHHGYTDYGTAAQFWRPQKQSNTQLTGKITLIWDANYCVVVQTRDAAGLTTSAKYDWRFLTPVQLTDINDNQHLITLDALGRPITLRFWGTENGKMTGYSSPEKASFSPPSDVNAAIELKKPLPVAQCQVYAPESWMPVLSQKTFNRLAEQDWQKLYNARIITEDGRICTLAYRRWVQSQKAIPQLISLLNNGPRLPPHSLTLTTDRYDHDPEQQIRQQVVFSDGFGRLLQAAARHEAGMARQRNEDGSLIINVQHTENRWAVTGRTEYDNKGQPIRTYQPYFLNDWRYVSNDSARQEKEAYADTHVYDPIGREIKVITAKGWFRRTLFTPWFTVNEDENDTAAEVKKVKM

Legend:
[1] = target: B1; assay: crystal structure; conditions: both partners purified
[2] = target: Photorhabdus luminescens TcdA1 (TcA) (Photorhabdus luminescens, UniProt Q9RN43 1-2516); assay: cryo-EM structure; conditions: both partners purified

| Binder | binding result [1] | binding result [2] |
| --- | --- | --- |
| TccC3 (TcC) of the TcdB2-TccC3 cocoon, without the HVR (domain or fragment) MKNIDPKLYQKTPTVSVYDNRGLIIRNIDFHRTTANGDPDTRITRHQYDIHGHLNQSIDPRLYEAKQTNNTIKPNFLWQYDLTGNPLCTESIDAGRTVTLNDIEGRPLLTVTATGVIQTRQYETSSLPGRLLSVAEQTPEEKTSRITERLIWAGNTEAEKDHNLAGQCVRHYDTAGVTRLESLSLTGTVLSQSSQLLIDTQEANWTGDNETVWQNMLADDIYTTLSTFDATGALLTQTDAKGNIQRLAYDVAGQLNGSWLTLKGQTEQVIIKSLTYSAAGQKLREEHGNDVITEYSYEPETQRLIGIKTRRPSDTKVLQDLRYEYDPVGNVISIRNDAEATRFWHNQKVMPENTYTYDSLYQLISATGREMANIGQQSHQFPSPALPSDNNTYTNYTRTYTYDRGGNLTKIQHSSPATQNNYTTNITVSNRSNRAVLSTLTEDPAQVDALFDAGGHQNTLISGQNLNWNTRGELQQVTLVKRDKGANDDREWYRYSGDGRRMLKINEQQASNNAQTQRVTYLPNLELRLTQNSTATTEDLQVITVGEAGRAQVRVLHWESGKPEDIDNNQLRYSYDNLIGSSQLELDSEGQIISEEEYYPYGGTALWAARNQTEASYKTIRYSGKERDATGLYYYGYRYYQPWIGRWLSSDPAGTIDGLNLYRMVRNNPVTLLDPDGL | binds | – |
| B1 | – | binds |
